Consider 34 molecules from patent US20210355194A1 (TWIST BIOSCIENCE, published 2021).

Numbering of substitutions follows the chain as printed.

For orientation: Kd means the concentration at which binding is half-saturated. A high value points to lower affinity.

The target in the experiment is CV S-protein construct 6 trimer TP31001F (SARS-CoV-2, UniProt P0DTC2 14-1208). The experiment in a line: SPR. (SPR reads the build-up and loss of mass on a sensor chip optically.)

B1: variant 5-16 (Fc fusion)
VHH: EVQLVESGGGLVQPGGSLRLSCAASGRTHSIYPMGWFRQAPGKERELVAAIHSGGATVYADSVKGRFTISADNSKNTAYLQMNSLKPEDTAVYYCAARRWIPPGPIWGQGTLVTVSS
B1 had a Kd of 1.9 nM.

B2: variant 5-15 (Fc fusion)
VHH: EVQLVESGGGLVQPGGSLRLSCAASGFTFDGAAMGWFRQAPGKEREFVATIRWTNSTDYADSVKGRFTISADNSKNTAYLQMNSLKPEDTAVYYCARGRYGIVERWGQGTLVTVSS
As for B2, the affinity, expressed as Kd, was 2.3 nM. The Kd values of the last two molecules are within 1.5-fold of each other.

B3: variant 5-59 (Fc fusion)
VHH: EVQLVESGGGLVQPGGSLRLSCAASGLTFSLYRMCWFRQAPGKEREEVSCISNIDGSTYYADSVKGRFTISADNSKNTAYLQMNSLKPEDTAVYYCAADLLGDSDYEPSSGFGWGQGTLVTVSS
B3 displayed a Kd of 6.4 nM.

B4: variant 5-29 (Fc fusion)
VHH: EVQLVESGGGLVQPGGSLRLSCAASGFTFDDYPMGWFRQAPGKEREGVASVLRGGYTWYADSVKGRFTISADNSKNTAYLQMNSLKPEDTAVYYCAKDWATGLAWGQGTLVTVSS
Turning to B4, the dissociation constant Kd is 1 nM. This Kd lies about 6.4-fold lower than the previous one.

B5: variant 5-56 (Fc fusion)
VHH: EVQLVESGGGLVQPGGSLRLSCAASGRTFSSNMGWFRQAPGKEREFVARIFGGDRTLYADSVKGRFTISADNSKNTAYLQMNSLKPEDTAVYYCADINGDWGQGTLVTVSS
Regarding B5, the affinity, expressed as Kd, was 2.8 nM. This Kd is about 2.8-fold higher than that of the molecule before.

B6: variant 5-67 (Fc fusion)
VHH: EVQLVESGGGLVQPGGSLRLSCAASGFNVNDYAMGWFRQAPGKEREFVAGITSSVGVTNYADSVKGRFTISADNSKNTAYLQMNSLKPEDTAVYYCAADIFFVNWGRGTLVTVSS
In turn, B6 had a dissociation constant (Kd) of 1 nM.

B7: variant 5-35 (Fc fusion)
VHH: EVQLVESGGGLVQPGGSLRLSCAASGPTFSIYAMGWFRQAPGKERELVAGISWNGGSTNYADSVKGRFTISADNSKNTAYLQMNSLKPEDTAVYYCALRRRFGGQEWGQGTLVTVSS
For the molecule B7, the equilibrium dissociation constant (Kd) was 16 nM.

B8: variant 5-42 (Fc fusion)
VHH: EVQLVESGGGLVQPGGSLRLSCAASGFTPDDYAMGWFRQAPGKEREFVASIGYSGRSNSYNYYADSVKGRFTISADNSKNTAYLQMNSLKPEDTAVYYCAIAHGSSTYNWGQGTLVTVSS
B8 gave a Kd of 0.6 nM.

B9: variant 5-32 (Fc fusion)
VHH: EVQLVESGGGLVQPGGSLRLSCAASGFTPDNYAMGWFRQAPGKEREFVAALGWSGVTTYHYYADSVKGRFTISADNSKNTAYLQMNSLKPEDTAVYYCASDESDAANWGQGTLVTVSS
B9 showed a Kd of 0.1 nM.

B10: variant 5-49 (Fc fusion)
VHH: EVQLVESGGGLVQPGGSLRLSCAASGRTSTVNGMGWFRQAPGKEREFVASISQSGAATAYADSVKGRFTISADNSKNTAYLQMNSLKPEDTAVYYCAADRTYSYSSTGYYWGQGTLVTVSS
In the case of B10, the affinity, expressed as Kd, was 3.4 nM.

B11: variant 5-20 (Fc fusion)
VHH: EVQLVESGGGLVQPGGSLRLSCAASGRTIVPYTMGWFRQAPGKERELVAAISPSAFTEYADSVKGRFTISADNSKNTAYLQMNSLKPEDTAVYYCAARRWGYDWGQGTLVTVSS
notes: VHH-Fc
Molecule B11 showed a dissociation constant (Kd) of 1.1 nM. Against the preceding molecule, the Kd is about 3.1-fold lower.

B12: variant 5-52 (Fc fusion)
VHH: EVQLVESGGGLVQPGGSLRLSCAASGEKFSDHWMGWFRQAPGKEREFVATITFSGARTAYADSVKGRFTISADNSKNTAYLQMNSLKPEDTAVYYCAALIKPSSTDRIFEEWGQGTLVTVSS
B12 had a Kd of 0.9 nM. The Kd values of the last two molecules are within 1.5-fold of each other.

B13: variant 5-22 (Fc fusion)
VHH: EVQLVESGGGLVQPGGSLRLSCAASGFTFNVFAMGWFRQAPGKEREFVAAINWSDSRTDYADSVKGRFTISADNSKNTAYLQMNSLKPEDTAVYYCASGSDNRARELSRYEYVWGQGTLVTVSS
As to B13, the Kd is 7.2 nM. This Kd lies about 8-fold higher than the previous one.

B14: variant 5-37 (Fc fusion)
VHH: EVQLVESGGGLVQPGGSLRLSCAASGSTFSINAMGWFRQAPGKEREFVGGISRSGATTNYADSVKGRFTISADNSKNTAYLQMNSLKPEDTAVYYCAADGVPEYSDYASGPVWGQGTLVTVSS
notes: VHH-Fc
B14 gave a Kd of 1.8 nM.

B15: variant 5-17 (Fc fusion)
VHH: EVQLVESGGGLVQPGGSLRLSCAASGPTFSIYAMGWFRQAPGKEREFVAGIRWSDVYTQYADSVKGRFTISADNSKNTAYLQMNSLKPEDTAVYYCALDIDYRDWGQGTLVTVSS
B15 yielded a Kd of 18.9 nM.

B16: variant 5-39 (Fc fusion)
VHH: B15 VHH with P27V, F29L, S30D, I31L, S54T, V56A, Q59E, L98V
With B16, binding was put at a Kd of 37.6 nM.

B17: variant 5-47 (Fc fusion)
VHH: EVQLVESGGGLVQPGGSLRLSCAASGFTFGSYDMGWFRQAPGKEREFVTAINWSGARTAYADSVKGRFTISADNSKNTAYLQMNSLKPEDTAVYYCAARSVYSYEYNWGQGTLVTVSS
The molecule B17 gave a Kd of 0.7 nM.

B18: variant 6-2 (Fc fusion)
VHH: EVQLVESGGGLVQPGGSLRLSCAASGFTMSSSWMGWFRQAPGKEREFVTVISGVGTSYADSVKGRFTISADNSKNTAYLQMNSLKPEDTAVYYCARGPDSSGYGFDYWGQGTLVTVSS
Molecule B18 came in with a Kd of 1.2 nM.

B19: variant 5-28 (Fc fusion)
VHH: EVQLVESGGGLVQPGGSLRLSCAASGGTFSVFAMGWFRQVPGKERELVAEITAGGSTYYADSVKGRFTISADNSKNTAYLQMNSLKPEDTAVYYCAVDGPFGWGQGTLVTVSS
B19 had a Kd of 1 nM. The Kd values of the last two molecules are within 1.5-fold of each other.

B20: variant 5-1 (Fc fusion)
VHH: EVQLVESGGGLVQPGGSLRLSCAASGGTFSSIGMGWFRQAPGKEREFVAAISWDGGATAYADSVKGRFTISADNSKNTAYLQMNSLKPEDTAVYYCAKEDVGKPFDWGQGTLVTVSS
notes: VHH-Fc
In turn, B20 had an equilibrium dissociation constant (Kd) of 0.4 nM.

B21: variant 5-23 (Fc fusion)
VHH: EVQLVESGGGLVQPGGSLRLSCAASGSIFSIDVMGWFRQAPGKEREFVAAISWSGESTLYADSVKGRFTISADNSKNTAYLQMNSLKPEDTAVYYCAAFDGYSGSDWGQGTLVTVSS
For the molecule B21, the dissociation constant (Kd) stood at 4.2 nM.

B22: variant 5-66 (Fc fusion)
VHH: B21 VHH with S27N, I28T, S30T, D32N, S52N, S54N, E56G, S57T, S105I
Molecule B22 showed a Kd of 98.9 nM.

B23: variant 5-3 (Fc fusion)
VHH: B21 VHH with A50G, E56D, S103T
B23: the Kd stood at 5.6 nM.

B24: variant 5-27 (Fc fusion)
VHH: EVQLVESGGGLVQPGGSLRLSCAASGRANSINWMGWFRQAPGKEREFVATITPGGNTNYADSVKGRFTISADNSKNTAYLQMNSLKPEDTAVYYCAAAAGSTWYGTLYEYDWGQGTLVTVSS
On to B24, for which the affinity, expressed as Kd, was 110 nM.

B25: variant 5-65 (Fc fusion)
VHH: EVQLVESGGGLVQPGGSLRLSCAASGNIDRLYAMGWFRQAPGKEREGVAAIDSDGSTDYADSVKGRFTISADNSKNTAYLQMNSLKPEDTAVYYCAALIDYGLGFPIEWGQGTLVTVSS
For B25, binding was put at a Kd of 421 nM. This Kd is about 3.8-fold higher than that of the molecule before.

B26: variant 5-21 (Fc fusion)
VHH: EVQLVESGGGLVQPGGSLRLSCAASGGTFTTYHMGWFRQAPGKEREFVAHISTGGATNYADSVKGRFTISADNSKNTAYLQMNSLKPEDTAVYYCATFPAIVTDSDYDLGNDWGQGTLVTVSS
For the molecule B26, the affinity, expressed as Kd, was 10 nM.

B27: variant 6-1 (Fc fusion)
VHH: EVQLVESGGGLVQPGGSLRLSCAASGRTFGNYNMGWFRQAPGKEREFVATINSLGGTSYADSVKGRFTISADNSKNTAYLQMNSLKPEDTAVYYCARVDYYMDVWGQGTLVTVSS
In turn, B27 displayed a Kd of 1.2 nM. Against the preceding molecule, the Kd is about 8.3-fold lower.

B28: variant 5-13 (Fc fusion)
VHH: EVQLVESGGGLVQPGGSLRLSCAASGFTFDYYTMGWFRQAPGKEREFVAAIRSSGGLFYADSVKGRFTISADNSKNTAYLQMNSLKPEDTAVYYCAAYLDGYSGSWGQGTLVTVSS
B28 yielded a Kd of 3.8 nM.

B29: variant 5-53 (Fc fusion)
VHH: EVQLVESGGGLVQPGGSLRLSCAASGLTVVPYAMGWFRQAPGKEREFVAAIRRSAVTNYADSVKGRFTIIADNSKNTAYLLMNSLKPEDTAVYYCAARRWGYHYWGQGTLVTVSS
Take B29: binding was characterised by a dissociation constant (Kd) of 684 nM. Compared with the last molecule, the Kd is about 180-fold higher.

B30: variant 5-55 (Fc fusion)
VHH: EVQLVESGGGLVQPGGSLRLSCAASGIDVNRNAMGWFRQAPGKEREFVAAITWSGGWRYYADSVKGRFTISADNSKNTAYLQMNSLKPEDTAVYYCATTFGDAGIPDQYDFGWGQGTLVTVSS
In turn, B30 yielded a Kd of 0.6 nM.

B31: variant 5-68 (Fc fusion)
VHH: EVQLVESGGGLVQPGGSLRLSCAASGFTFDHYTMGWFRQAPGKEREFVAAISGSENVTSYADSVKGRFTISADNSKNTAYLQMNSLKPEDTAVYYCAAEPYIPVRTMRHMTFLTWGQGTLVTVSS
In the case of B31, the Kd came out at 4.8 nM.

B32: variant 5-60 (Fc fusion)
VHH: EVQLVESGGGLVQPGGSLRLSCAASGRSFSSHRMGWFRQAPGKEREFVAAIMWSGSHRNYADSVKGRFTISADNSKNTAYLQMNSLKPEDTAVYYCAAIAYEEGVYRWDWGQGTLVTVSS
For B32, the Kd worked out at 0.8 nM.

B33: variant 5-63 (Fc fusion)
VHH: EVQLVESGGGLVQPGGSLRLSCAASGFSLDYYDMGWFRQAPGKEREFVAALGWSGGSTDYADSVKGRFTISADNSKNTAYLQMNSLKPEDTAVYYCAAGNGGRYGIVERWGQGTLVTVSS
Consider B33, for which binding was characterised by a dissociation constant (Kd) of 0.4 nM. Against the preceding molecule, the Kd is about 2-fold lower.

B34: variant 5-64 (Fc fusion)
VHH: EVQLVESGGGLVQPGGSLRLSCAASGTSISNRVMGWFRQAPGKERELVARIYTGGDTLYADSVKGRFTISADNSKNTAYLQMNSLKPEDTAVYYCAARKIYRSLSYYGDYDWGQGTLVTVSS
Consider B34, for which the Kd turned out to be 221 nM.
